According to PMC4405707:

Tests used:
[1] = outside-out patch, 10 mM glutamate, τw,des; conditions: glycan lost; control: GluA2i WT + γ-2
[2] = outside-out patch, steady state-to-peak ratio; conditions: glycan lost; control: GluA2i WT + γ-2

B1: GluA2i: N385D (protein)
parent chain: MQKIMHISVLLSPVLWGLIFGVSSNSIQIGGLFPRGADQEYSAFRVGMVQFSTSEFRLTPHIDNLEVANSFAVTNAFCSQFSRGVYAIFGFYDKKSVNTITSFCGTLHVSFITPSFPTDGTHPFVIQMRPDLKGALLSLIEYYQWDKFAYLYDSDRGLSTLQAVLDSAAEKKWQVTAINVGNINNDKKDETYRSLFQDLELKKERRVILDCERDKVNDIVDQVITIGKHVKGYHYIIANLGFTDGDLLKIQFGGANVSGFQIVDYDDSLVSKFIERWSTLEEKEYPGAHTATIKYTSALTYDAVQVMTEAFRNLRKQRIEISRRGNAGDCLANPAVPWGQGVEIERALKQVQVEGLSGNIKFDQNGKRINYTINIMELKTNGPRKIGYWSEVDKMVVTLTELPSGNDTSGLENKTVVVTTILESPYVMMKKNHEMLEGNERYEGYCVDLAAEIAKHCGFKYKLTIVGDGKYGARDADTKIWNGMVGELVYGKADIAIAPLTITLVREEVIDFSKPFMSLGISIMIKKPQKSKPGVFSFLDPLAYEIWMCIVFAYIGVSVVLFLVSRFSPYEWHTEEFEDGRETQSSESTNEFGIFNSLWFSLGAFMQQGCDISPRSLSGRIVGGVWWFFTLIIISSYTANLAAFLTVERMVSPIESAEDLSKQTEIAYGTLDSGSTKEFFRRSKIAVFDKMWTYMRSAEPSVFVRTTAEGVARVRKSKGKYAYLLESTMNEYIEQRKPCDTMKVGGNLDSKGYGIATPKGSSLGTPVNLAVLKLSEQGVLDKLKNKWWYDKGECGAKDSGSKEKTSALSLSNVAGVFYILVGGLGLAMLVALIEFCYKSRAEAKRMKVAKNPQNINPSSSQNSQNFATYKEGYNVYGIESVKI
In the case of B1, the “other: channel desensitisation kinetics” value [1] is reported as “no change” and the “other: steady-state channel current” value [2] is reported as “increases”.

B2: GluA2i: N392Q (protein)
parent chain: MQKIMHISVLLSPVLWGLIFGVSSNSIQIGGLFPRGADQEYSAFRVGMVQFSTSEFRLTPHIDNLEVANSFAVTNAFCSQFSRGVYAIFGFYDKKSVNTITSFCGTLHVSFITPSFPTDGTHPFVIQMRPDLKGALLSLIEYYQWDKFAYLYDSDRGLSTLQAVLDSAAEKKWQVTAINVGNINNDKKDETYRSLFQDLELKKERRVILDCERDKVNDIVDQVITIGKHVKGYHYIIANLGFTDGDLLKIQFGGANVSGFQIVDYDDSLVSKFIERWSTLEEKEYPGAHTATIKYTSALTYDAVQVMTEAFRNLRKQRIEISRRGNAGDCLANPAVPWGQGVEIERALKQVQVEGLSGNIKFDQNGKRINYTINIMELKTNGPRKIGYWSEVDKMVVTLTELPSGNDTSGLENKTVVVTTILESPYVMMKKNHEMLEGNERYEGYCVDLAAEIAKHCGFKYKLTIVGDGKYGARDADTKIWNGMVGELVYGKADIAIAPLTITLVREEVIDFSKPFMSLGISIMIKKPQKSKPGVFSFLDPLAYEIWMCIVFAYIGVSVVLFLVSRFSPYEWHTEEFEDGRETQSSESTNEFGIFNSLWFSLGAFMQQGCDISPRSLSGRIVGGVWWFFTLIIISSYTANLAAFLTVERMVSPIESAEDLSKQTEIAYGTLDSGSTKEFFRRSKIAVFDKMWTYMRSAEPSVFVRTTAEGVARVRKSKGKYAYLLESTMNEYIEQRKPCDTMKVGGNLDSKGYGIATPKGSSLGTPVNLAVLKLSEQGVLDKLKNKWWYDKGECGAKDSGSKEKTSALSLSNVAGVFYILVGGLGLAMLVALIEFCYKSRAEAKRMKVAKNPQNINPSSSQNSQNFATYKEGYNVYGIESVKI
In the case of B2, the “other: channel desensitisation kinetics” value [1] is reported as “no change” and the “other: steady-state channel current” value [2] is reported as “increases”.
